Test results: the supplement of paper PMC12042874
± gives the uncertainty stated by the source.

Assay: amyloid nucleation score (Sup35N fusion, yeast selection) (log enrichment); library NNK3; higher = more nucleation; inactive = no reads after selection
How it was run: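 Random libraries were run with three technical output replicates. In each, psi-negative yeast expressing Sup35N fused to peptides of 20 random codons were induced 24 hours with 100 μM copper sulfate and grown 7 days at 30°C on medium lacking adenine and uracil, and input and output plasmid inserts were Illumina-sequenced. The nucleation score is the DiMSum log enrichment of output over input reads, centred on the mode score of non-aggregating sequences, and sequences under 100 input reads were excluded.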
For PRPSYWHRYSWSTTIVGGIS, the amyloid nucleation score was “inactive”.
With PRSMNLHLTSSVTSCLKSVW the amyloid nucleation score was -0.707 ± 0.9.
With PRYGEVGATSFSDVTETML the amyloid nucleation score was “inactive”.
With PSHPVPLFHE the amyloid nucleation score was “inactive”.
With PSHTLRNTSLSMSVSTTHKA the amyloid nucleation score was “inactive”.
With PSKPRTGQVGGVYHLCVVFW the amyloid nucleation score was “inactive”.
With PSLYDLKRSCWGSWMAYEWK the amyloid nucleation score was “inactive”.
Work on PSNMRG yielded an amyloid nucleation score of 0.147 ± 0.34.
In the case of PSRRRMYADFHKATFPVRMG, the amyloid nucleation score is reported as “inactive”.
With PSSLVIINNYSYC the amyloid nucleation score was 3.09 ± 0.073.
PSSSDGSMHLYIILQTLLFF gave an amyloid nucleation score of 1.49 ± 0.11.
For PSTEI, the amyloid nucleation score was “inactive”.
For PSTGLNSVKNRIDVSCGFR, the amyloid nucleation score was “inactive”.
In the case of PTCGMDFVLQEYTKT, the amyloid nucleation score is reported as “inactive”.
In the case of PTFCNQNFGNTFGCKRFYLS, the amyloid nucleation score is reported as “inactive”.
In the case of PTILWAQYAGWGSKVWPPRL, the amyloid nucleation score is reported as “inactive”.
In the case of PTKRYVKSYLISCVFIISHP, the amyloid nucleation score is reported as “inactive”.
In the case of PTLLTMRQEQRHAKNFRSNL, the amyloid nucleation score is reported as “inactive”.
With PTLYRQNGLLWLVDGEKLIR the amyloid nucleation score was “inactive”.
In the case of PTNLYCHRMGEVSVYCRNLR, the amyloid nucleation score is reported as “inactive”.
For PTNTNCLNVLG, the amyloid nucleation score was “inactive”.
In the case of PTVKKLYMQLFLSPCISSEG, the amyloid nucleation score is reported as “inactive”.
For PVLGSHRIVLSFDKIYLSRD, the amyloid nucleation score was “inactive”.
With PVLSYSVLRYL the amyloid nucleation score was “inactive”.
In the case of PVQQSGLVWRLGAIVVC, the amyloid nucleation score is reported as “inactive”.
With PVRIVLVKPGIFMLDVTYSP the amyloid nucleation score was “inactive”.
With PVSII the amyloid nucleation score was “inactive”.
With PVVTMLYLTSIVSSSGHGSY the amyloid nucleation score was 0.898 ± 0.11.
In the case of PVVTVGYLDRMFISFLFSRI, the amyloid nucleation score is reported as “inactive”.
With PWSWWTHYTSGCQYQFGYRG the amyloid nucleation score was -0.749 ± 1.1.
In the case of PYTTLYSFRNC, the amyloid nucleation score is reported as “inactive”.
For PYYRRMPVDSARRTSKSK, the amyloid nucleation score was “inactive”.
With QALYDWILWNHWTTKVGPVA the amyloid nucleation score was “inactive”.
For QAVMKRAALVPTRTAKSLPS, the amyloid nucleation score was “inactive”.
With QCFCILDFMYWIHARSIM the amyloid nucleation score was “inactive”.
For QCKHSPGWAWRNSTNHCIAS, the amyloid nucleation score was “inactive”.
For QCLQALNMKIVFDHVRFRVR, the amyloid nucleation score was “inactive”.
For QCRHPGSRP, the amyloid nucleation score was “inactive”.
With QCRYRRSST the amyloid nucleation score was “inactive”.
For QCVCLS, the amyloid nucleation score was “inactive”.
In the case of QCVRSMLEELRIGYKVHRQS, the amyloid nucleation score is reported as “inactive”.
For QCYCGLTPTANLDPLMRIWD, the amyloid nucleation score was “inactive”.
For QDDAVFSLSI, the amyloid nucleation score was “inactive”.
In the case of QDWEMVN, the amyloid nucleation score is reported as “inactive”.
With QEYEGLRDSVKTVEGYVWLM the amyloid nucleation score was “inactive”.
For QFHYYVLMIRSVIPFIALWK, the amyloid nucleation score was “inactive”.
In the case of QFLRGVMPAGMECAHATMRW, the amyloid nucleation score is reported as “inactive”.
QFMYMFRARRTCGLNNGGQD showed an amyloid nucleation score of -0.689 ± 1.5.
In the case of QFSRPGIFNFHRWDSRYRAA, the amyloid nucleation score is reported as “inactive”.
With QFSRWI the amyloid nucleation score was “inactive”.
For QFTGHINRDVNM, the amyloid nucleation score was “inactive”.
For QFYTDSFLHIIFSWCGPLDQ, the amyloid nucleation score was “inactive”.
With QGEHRHLCDLSLSEG the amyloid nucleation score was “inactive”.
In the case of QGFFRFSLVSAKRACKLDYS, the amyloid nucleation score is reported as “inactive”.
In the case of QGHNHYVTILRFIWFLRPAM, the amyloid nucleation score is reported as “inactive”.
In the case of QICRGCRYVNVYYVPLSLDL, the amyloid nucleation score is reported as 1.32 ± 0.095.
For QIMIIISMRVSNMCGVSYLG, the amyloid nucleation score was “inactive”.
In the case of QIQGMNSQKRLRLKKP, the amyloid nucleation score is reported as “inactive”.
For QKIVSPRSGGFASPRMRQKV, the amyloid nucleation score was “inactive”.
In the case of QLAKG, the amyloid nucleation score is reported as “inactive”.
For QLFMPGSVVTHRSYFTCMWL, the amyloid nucleation score was 1.95 ± 0.064.
In the case of QLGDMNAAALITATASRLVM, the amyloid nucleation score is reported as “inactive”.
In the case of QLRRCLEMARYSKARFRNCM, the amyloid nucleation score is reported as “inactive”.
In the case of QLSHKACLWLSCSSGIPLGS, the amyloid nucleation score is reported as “inactive”.
With QMEKHLRAASVSVCTSQSPV the amyloid nucleation score was “inactive”.
In the case of QMGVVNLRAKGQQCAQRQSK, the amyloid nucleation score is reported as “inactive”.
With QNNRHISHLGLQGDEQALVY the amyloid nucleation score was “inactive”.
For QPPAKSMWFSFDMLS, the amyloid nucleation score was “inactive”.
With QQVLVVQNKCEWGRHIA the amyloid nucleation score was “inactive”.
For QQYSTAYYIHGFTKMVGVVA, the amyloid nucleation score was 0.298 ± 0.19.
In the case of QREGSNCAILCLL, the amyloid nucleation score is reported as “inactive”.
With QRIESGPLDY the amyloid nucleation score was “inactive”.
QSIARWTVLSFSWRTTSRKS gave an amyloid nucleation score of -0.416 ± 1.2.
In the case of QSLLSSLLGSYSRLEKLNVD, the amyloid nucleation score is reported as “inactive”.
QSLVPSFDPNLCQVGVLYCC gave an amyloid nucleation score of -0.654 ± 0.84.
For QSMWH, the amyloid nucleation score was “inactive”.
For QSPSSKAK, the amyloid nucleation score was “inactive”.
For QSQLGPDCRSYTGGERVLDV, the amyloid nucleation score was “inactive”.
With QSRMPCSLFILVNGDHDDMA the amyloid nucleation score was “inactive”.
Work on QSTPYYLGFTD yielded an amyloid nucleation score of 0.988 ± 0.11.
In the case of QSYIRKQFRIQSHISFSDNS, the amyloid nucleation score is reported as “inactive”.
In the case of QTAFQRL, the amyloid nucleation score is reported as “inactive”.
With QTAIIANPSVGGWLSNSHVR the amyloid nucleation score was “inactive”.
For QTIRTMKRGNRISCVPAGHS, the amyloid nucleation score was “inactive”.
For QTNIWYSGPIGSYHC, the amyloid nucleation score was “inactive”.
For QVCYG, the amyloid nucleation score was “inactive”.
In the case of QVFSN, the amyloid nucleation score is reported as “inactive”.
For QVGPWLDNSNSFCDDIKGMC, the amyloid nucleation score was “inactive”.
With QVGSRRNSS the amyloid nucleation score was “inactive”.
With QVRNSDRFSCIGSANIRKSL the amyloid nucleation score was “inactive”.
For QVSFFSQIRV, the amyloid nucleation score was “inactive”.
With QVYGINLGSTGNEARYAVRD the amyloid nucleation score was “inactive”.
In the case of QWFHVSLS, the amyloid nucleation score is reported as “inactive”.
With QWTSFLVLCCTNPRLGSSRV the amyloid nucleation score was 2.67 ± 0.073.
For QYAAMATGNLYLS, the amyloid nucleation score was “inactive”.
For QYCSGSLKFRGVPIFNGDDG, the amyloid nucleation score was “inactive”.
With QYCSSCLLWCMKSQGLDMTR the amyloid nucleation score was “inactive”.
With QYFVP the amyloid nucleation score was “inactive”.
For QYHNQYHMIKRLYAFRARMG, the amyloid nucleation score was “inactive”.
In the case of QYISIENHPEACMQGSTCYS, the amyloid nucleation score is reported as “inactive”.
In the case of QYKSMAGSLWFNSVQEQASK, the amyloid nucleation score is reported as “inactive”.
For QYLFCVVGGWIVRYLWPWML, the amyloid nucleation score was “inactive”.
Work on RAFHYNSCKSVSAVLDLNVL yielded an amyloid nucleation score of -0.094 ± 0.31.
In the case of RAGDNIFWTIAKCTRNTHVM, the amyloid nucleation score is reported as “inactive”.
In the case of RAGVKNG, the amyloid nucleation score is reported as “inactive”.
RAIGLGAFGIRRGGTRKWNE gave an amyloid nucleation score of -1.06 ± 2.5.
With RAMCIESTYLVMPYTTCNQT the amyloid nucleation score was “inactive”.
RAMLLGFSCMVWVPWGQFGK gave an amyloid nucleation score of 0.649 ± 0.22.
In the case of RANESTLM, the amyloid nucleation score is reported as “inactive”.
With RANVQDMTKISYVFTYTWYV the amyloid nucleation score was “inactive”.
In the case of RAPAMGL, the amyloid nucleation score is reported as “inactive”.
For RASMYG, the amyloid nucleation score was “inactive”.
In the case of RCDKIWQASVMGSDIRDL, the amyloid nucleation score is reported as “inactive”.
Substance RCELCMSIKGLAVNNIR has an amyloid nucleation score of 1.9 ± 0.1.
For RCKIENVIYM, the amyloid nucleation score was 2.44 ± 0.058.
For RCNISTRFLLLWTFSFLLVY, the amyloid nucleation score was “inactive”.
With RCSDWYHFTAQSS the amyloid nucleation score was “inactive”.
With RCTELVKAISLVVVYIYDEG the amyloid nucleation score was “inactive”.
Substance RCVLRW has an amyloid nucleation score of 1.34 ± 0.12.
For RCVSMEADWVVSAEFTKDVF, the amyloid nucleation score was “inactive”.
For RCYFKYP, the amyloid nucleation score was 1.32 ± 0.13.
With RCYKKVYLMLAVRLAPFGLG the amyloid nucleation score was “inactive”.
For RCYVCRTMRACMVLAAKLEP, the amyloid nucleation score was “inactive”.
RCYVNYIRTYICAYCFAVNE gave an amyloid nucleation score of 2.39 ± 0.074.
For RDDMGLESKQDGEP, the amyloid nucleation score was “inactive”.
For RDFTSYGCFVASSSLDRSFL, the amyloid nucleation score was “inactive”.
With RDGFN the amyloid nucleation score was “inactive”.
Substance RDIISMIVGWVLLQYLTTTY has an amyloid nucleation score of -0.888 ± 1.
For RDLCIPWLCRAFFPAMCVVI, the amyloid nucleation score was “inactive”.
With RDLVPLDDRA the amyloid nucleation score was “inactive”.
In the case of RDSFVFYVY, the amyloid nucleation score is reported as “inactive”.
For RDSQRSVRVTAIDG, the amyloid nucleation score was “inactive”.
For REDILLRSSFSDSHVGRLKT, the amyloid nucleation score was “inactive”.
In the case of REFPRGWLLGLLCFRLYLLE, the amyloid nucleation score is reported as “inactive”.
With REGRVLVWYSYYKFYTRHYF the amyloid nucleation score was 0.004 ± 0.72.
In the case of REMFASPSIGTALRR, the amyloid nucleation score is reported as “inactive”.
In the case of REPVRLQNKRLPRCQRREWC, the amyloid nucleation score is reported as “inactive”.
For RESVTSPILILSWEGISRCH, the amyloid nucleation score was “inactive”.
For REVRNWRERVCQMRVLVVMC, the amyloid nucleation score was “inactive”.
For REWRSNDGFFGSDSGVVGHT, the amyloid nucleation score was “inactive”.
In the case of RFGAGILRSSNQDSGFRVTG, the amyloid nucleation score is reported as “inactive”.
In the case of RFKMAYFKNTAYLFNNANSV, the amyloid nucleation score is reported as “inactive”.
With RFNTDSQPAVMIVFRYNRLR the amyloid nucleation score was “inactive”.
In the case of RFRHGDTGSTFRCWCFVS, the amyloid nucleation score is reported as “inactive”.
For RFSCCYRPLLYNQKVEWWRG, the amyloid nucleation score was “inactive”.
In the case of RFSCEYVATLTLSGRQAVKH, the amyloid nucleation score is reported as 0.043 ± 0.72.
In the case of RFSGM, the amyloid nucleation score is reported as “inactive”.
In the case of RFTMWRNDHC, the amyloid nucleation score is reported as 0.421 ± 0.38.
For RFVLQ, the amyloid nucleation score was “inactive”.
With RFWRCWAMINR the amyloid nucleation score was “inactive”.
Work on RGGCQATVGNALNIRFFAQG yielded an amyloid nucleation score of 1.72 ± 0.095.
With RGGRTSVLLNRSMLVEK the amyloid nucleation score was “inactive”.
In the case of RGGTASQVFMCFKLVFRSRY, the amyloid nucleation score is reported as -0.14 ± 0.6.
In the case of RGIANCPHLCIAYLMLS, the amyloid nucleation score is reported as “inactive”.
In the case of RGINDDSPF, the amyloid nucleation score is reported as “inactive”.
Work on RGLRTKVGMSVRNCEYRYVM yielded an amyloid nucleation score of -0.455 ± 1.1.
Work on RGLVLVFVREAYRREY yielded an amyloid nucleation score of 0.598 ± 0.29.
For RGMCV, the amyloid nucleation score was “inactive”.
In the case of RGMFTFNYMNWGKDLLRPRL, the amyloid nucleation score is reported as “inactive”.
RGPFGLYSLDILLVSQVFRR showed an amyloid nucleation score of 0.502 ± 0.23.
